{"source": "paper PMC7549910", "key": {"human factor H (human) [1]": {"molecular_target": "human factor H (human) (UniProt P08603)", "sequence (P08603 19-1231)": "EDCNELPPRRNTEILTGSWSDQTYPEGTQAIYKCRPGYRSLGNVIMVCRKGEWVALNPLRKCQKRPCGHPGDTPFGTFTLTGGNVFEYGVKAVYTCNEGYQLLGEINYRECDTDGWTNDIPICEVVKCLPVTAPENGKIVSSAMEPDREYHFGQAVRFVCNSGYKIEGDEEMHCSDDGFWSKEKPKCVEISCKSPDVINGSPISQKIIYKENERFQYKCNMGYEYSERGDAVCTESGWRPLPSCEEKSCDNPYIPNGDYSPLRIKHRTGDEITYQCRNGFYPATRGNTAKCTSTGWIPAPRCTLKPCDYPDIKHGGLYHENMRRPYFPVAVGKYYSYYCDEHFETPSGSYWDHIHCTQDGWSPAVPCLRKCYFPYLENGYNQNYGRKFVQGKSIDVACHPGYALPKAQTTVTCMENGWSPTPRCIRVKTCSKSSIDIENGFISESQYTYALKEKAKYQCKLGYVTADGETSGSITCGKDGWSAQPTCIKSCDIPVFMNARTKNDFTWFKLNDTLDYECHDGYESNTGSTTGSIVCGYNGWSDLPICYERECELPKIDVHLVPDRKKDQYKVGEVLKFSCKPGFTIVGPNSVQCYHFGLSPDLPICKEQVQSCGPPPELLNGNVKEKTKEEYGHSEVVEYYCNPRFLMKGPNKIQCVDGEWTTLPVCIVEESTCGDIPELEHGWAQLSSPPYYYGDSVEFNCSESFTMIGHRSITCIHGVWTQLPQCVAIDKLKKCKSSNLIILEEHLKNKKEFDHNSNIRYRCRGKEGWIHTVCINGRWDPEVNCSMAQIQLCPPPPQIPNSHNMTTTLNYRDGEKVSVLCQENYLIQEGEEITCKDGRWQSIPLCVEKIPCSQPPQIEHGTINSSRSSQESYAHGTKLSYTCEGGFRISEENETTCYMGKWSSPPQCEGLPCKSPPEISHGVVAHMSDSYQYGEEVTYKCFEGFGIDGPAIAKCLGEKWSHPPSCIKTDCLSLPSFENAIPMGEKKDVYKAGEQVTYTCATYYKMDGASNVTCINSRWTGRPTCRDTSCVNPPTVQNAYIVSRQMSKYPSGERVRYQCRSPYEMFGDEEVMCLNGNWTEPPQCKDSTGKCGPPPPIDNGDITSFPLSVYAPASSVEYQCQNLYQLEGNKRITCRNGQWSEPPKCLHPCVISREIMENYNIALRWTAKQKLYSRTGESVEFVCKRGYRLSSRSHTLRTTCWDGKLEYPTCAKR"}, "[2]": {"molecular_target": "elongation factor Tu (EF-Tu) of M. hyopneumoniae strain 168, endogenous (M. hyopneumoniae (endogenous in strain 168))", "sequence (Q4A7K0 whole entry)": "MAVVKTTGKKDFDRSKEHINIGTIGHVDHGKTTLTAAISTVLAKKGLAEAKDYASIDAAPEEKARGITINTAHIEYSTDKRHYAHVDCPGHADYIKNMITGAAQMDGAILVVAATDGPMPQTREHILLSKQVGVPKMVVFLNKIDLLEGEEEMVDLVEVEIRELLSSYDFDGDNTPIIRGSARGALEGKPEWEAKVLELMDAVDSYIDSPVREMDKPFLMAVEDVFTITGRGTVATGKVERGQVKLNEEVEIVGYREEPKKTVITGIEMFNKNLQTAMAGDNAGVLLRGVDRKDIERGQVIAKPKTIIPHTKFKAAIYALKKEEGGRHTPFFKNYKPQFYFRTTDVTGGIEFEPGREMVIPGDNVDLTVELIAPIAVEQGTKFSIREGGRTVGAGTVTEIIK"}, "human factor H (human) [3]": {"molecular_target": "human factor H (human) (UniProt P08603)", "experiment": "SPR; BIAcore X100 Plus; factor H amine-coupled to a CM5 chip (712 RU); recombinant EF-Tu 0-14 uM as analyte in HBS-EP (10 mM HEPES, 150 mM NaCl, 3 mM EDTA, 0.05% P20), 30 uL/min, 180 s, 20°C"}}, "note": "pKd: −log10 of the molar value.", "data": [{"substance": "elongation factor Tu (EF-Tu) of M. hyopneumoniae strain 168, endogenous (natural protein)", "values": [{"measurement": "binding of M. hyopneumoniae cells to factor H immobilised on 96-well plates (qPCR count) after preincubation with anti-EF-Tu polyclonal antibodies against preimmune serum", "setting": "human factor H (human) [1]", "result": 47.7, "unit": "%"}]}, {"substance": "human factor H (from UniProt P08603 19-1231) (natural protein)", "values": [{"measurement": "C3 fragment deposition on M. hyopneumoniae cells by flow cytometry, anti-EF-Tu antibodies against preimmune sera, with factor H", "setting": "[2]", "result": 8, "unit": "fold"}]}, {"substance": "recombinant full-length EF-Tu of M. hyopneumoniae (from UniProt Q4A7K0 1-402) (natural protein; other documents disagree on this pair)", "values": [{"measurement": "pKd", "setting": "human factor H (human) [3]", "result": 5.11}]}]}
